Experimental data as given in US20250304658A1 (ICAHN SCHOOL OF MEDICINE AT MOUNT SINAI, published 2025).
Where a chain is given by its changes, count along the chain named. Several values for one entry are separate records, joined by “and”; a condition that tells them apart may be missing. Identical values can stand only once.

T1: BK virus VP1 protein, genotype I (BK virus, UniProt P03088 1-362)
T1 sequence: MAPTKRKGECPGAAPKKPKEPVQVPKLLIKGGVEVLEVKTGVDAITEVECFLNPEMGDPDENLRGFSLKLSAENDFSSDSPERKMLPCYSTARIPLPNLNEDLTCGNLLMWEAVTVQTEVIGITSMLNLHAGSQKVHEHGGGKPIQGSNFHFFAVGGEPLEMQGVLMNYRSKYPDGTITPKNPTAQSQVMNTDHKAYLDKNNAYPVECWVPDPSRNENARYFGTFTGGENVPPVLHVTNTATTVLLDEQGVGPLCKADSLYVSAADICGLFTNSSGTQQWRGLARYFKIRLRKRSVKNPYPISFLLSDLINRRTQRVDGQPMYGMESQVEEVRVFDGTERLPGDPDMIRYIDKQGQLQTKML

B1: 4E6 (antibody, V domains shown)
VH: EVQLVESGGDLVQPGRSLRLSCAASGFTFDDYAMHWVRQGPGKGLEWVSGISWSGVTMGYADSVKGRFTISRDNAKNSLYLRMNSLRADDTAFYYCARGDGTNAFDIWGHGTMVTVSS
VL: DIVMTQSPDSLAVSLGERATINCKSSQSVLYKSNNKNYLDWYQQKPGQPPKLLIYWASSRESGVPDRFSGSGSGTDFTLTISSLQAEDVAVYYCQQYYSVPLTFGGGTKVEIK
B2: 9H9 (antibody, V domains shown)
VH: EVQLVESGGGLVQPGGSLRLSCAASGFTFSSYEMNWVRQAPGKGLEWVSYISSGGSSIKYADSVRGRFTFSRDNAENSVHLQMNSLRGEDTAVYYCARVGGSYYYSYAMDVWGQGTAVTVSS
VL: DIQLTQSPSFLSASVGDRVTITCWASQDISSYLAWYQQKPGKAPKLLIYAASTLQSGVPSRFSGSGSGTEFTLTISSLQPEDFATYYCQQPNNYPFSFGPGTKVDVK
B3: 7E5 (antibody, V domains shown)
VH: EVQLLESGGGLIQPGGSLRLSCAASGFTFSGFAMSWVRQAPGKGLEWVSGISGSGDITYYGDSVKGRFTISRDNSKSTLYLQMNSLRDADTAVYYCGKDPYNWNHGVYGMDVWGQGTTVTVSS
VL: DIQMTQSPSSLSASVGDRVTITCRASQSISTYLNWYQQKPGKAPKFLIYGASSLQSGVPSRFSGSGSGTDFSLTISSLHPGDFATYYCQQSYNIPLTFGGGTKVEIK
B4: 14F5 (antibody, V domains shown)
VH: EVQLLESGGGLVQPGGSLRLSCAVSGFTFSSFAMSWVRQAPGKGLEWVSGISASGGTTNYADSVKGRFTISRDNSKNTLYLQMSSLRAEDTAEYYCAKDRFLEWVEGFDPWGQGILVTVSP
VL: DIQMTQSPSSLSASVGDRVTITCRASQSIGRFLIWYQQKPGKAPKLLLYATSSLQSGVPARFTGSGSGTDFTLTIGSLQPEDFATYYCQQSYITPLTFGGGTKVEIK
B5: 15C10 (antibody, V domains shown)
VH: B4 VH with V24A
VL: B4 VL
B6: 9G9 (antibody, V domains shown)
VH: EVQLLESGGGLVQPGGSLRLSCAASGFTFHNYAMSWVRQAPGKGLEWVSGISGSGGTAYYADSVKGRFTISRDNSKNTLYLQMNSLRADDTALYYCAKDRFLEWVEGFDSWGQGTLVTVSS
VL: B4 VL with R31S, L48I, T51A, A60S, T63S, T74I, G76S, I93N
B7: 7A4 (antibody, V domains shown)
VH: QVQLVESGGDLVKPGGSLRLSCVASGFTFSDYYMNWIRLPPGKGLEWISYIDSSAGAIYYADSVKGRFTVSRDDAKNSLFLHMNSLRADDTAVYYCVRERRDGHKIFDYWGPGTLVTVSS
VL: DIVMTQSPDSLAVSLGERATINCKSSQNILYSSNNKNYLAWYQQKAGQPPKLLIFWSSIRESGVPDRFSGSGSGTDFTLTISSLQAEDVAVYYCQQYYSSPYNFGRGTTLEIK
B8: 1H10 (antibody, V domains shown)
VH: B7 VH with Q3H, L39M, S85N, V97A, Y109C
VL: B7 VL with I59T
B9: 2F7 (antibody, V domains shown)
VH: B7 VH with D10G, K43R, E46Q, F80Y, H82Q, V97A, Y109W, P112Q
VL: B7 VL with S32T, A40G, F55Y, I59T, E61N, Q95H, N103T, R106Q, T109N
B10: 8A11 (antibody, V domains shown)
VH: B7 VH with I58T, D89E, V97A, D102S, Y109C
VL: B7 VL with I59T
B11: 1E2 (antibody, V domains shown)
VH: B7 VH with I48V, K65R, V97A, Y109C
VL: B7 VL with I59T, S82N
B12: 4F7 (antibody, V domains shown)
VH: B7 VH with S85N, V97A, Y109C
VL: B7 VL with I59T
B13: 9B4 (antibody, V domains shown)
VH: B7 VH with V97A, D102E, Y109F
VL: B7 VL with V13L, W41C, I59T
B14: 8D10 (antibody, V domains shown)
VH: B7 VH with Q3H, L79M, V97A
VL: B7 VL with I59T
B15: 5A8 (antibody, V domains shown)
VH: B7 VH with K43R, N77K, H82Y, V97A
VL: B7 VL with I59T, Q95H
B16: 6H12 (antibody, V domains shown)
VH: B2 VH with T69A, G88A
VL: B2 VL with S63T, N92H, Y94S
B17: 11D12 (antibody, V domains shown)
VH: B2 VH with H80F
VL: B2 VL
B18: 7H8 (antibody, V domains shown)
VH: EVQLLESGGGLVQPGGSLRLSCAASGFAFHTYDMTWVRQAPGKGLEWVSGVVGSGINTYYADSVKGRFTISRDNSKSTLYLQMNSLRAEDTAVYYCAKDSSSWFSLHYWGQGTLVTVSS
VL: DIQMTQSPSTLSASVGDRVTITCRASQSISNWLAWYQQKPGKAPKLLIYKASSLESGVPSRFSGSGSGTDFTLTISSLQPDDFASYYCQQYRSYAYTFGQGTKLEIT
B19: 2H1 (antibody, V domains shown)
VH: B7 VH with V97A, Y109C
VL: B7 VL with A46T, I59T

The binders below were run against T1, BK virus VP1 protein, genotype I (assay: cell-based or functional assay).

Row | Binder | EC50, pseudovirus neutralization [nM]
1 | B1 | > 6.67
2 | B2 | 0.0087
3 | B3 | 0.0249

The binders below were run against BK virus VP1 protein, genotype II (BK virus) (assay: cell-based or functional assay).

Row | Binder | EC50, pseudovirus neutralization [nM]
4 | B1 | 0.0021
5 | B4 | 0.0131
6 | B5 | 0.0131
7 | B6 | 0.0032
8 | B7 | 0.0132
9 | B8 | 0.0028
10 | B9 | 0.0011
11 | B10 | 0.0014
12 | B11 | 0.0332
13 | B12 | 0.0319
14 | B13 | 0.0152
15 | B14 | 0.0492
16 | B15 | 0.0009
17 | B16 | 0.0109
18 | B17 | 0.0095
19 | B2 | 0.0083
20 | B18 | 0.05
21 | B3 | 1.16

Each binder was assayed against BK virus VP1 protein, genotype III (BK virus) (assay: cell-based or functional assay).

Row | Binder | EC50, pseudovirus neutralization [nM]
22 | B1 | 0.0296
23 | B4 | 0.0215
24 | B5 | 0.0211
25 | B6 | 1.7
26 | B7 | 0.0081
27 | B8 | 0.0397
28 | B9 | 0.0022
29 | B10 | 0.0315
30 | B11 | 0.0081
31 | B12 | 0.0143
32 | B13 | 0.0118
33 | B14 | 0.029
34 | B15 | 0.0039
35 | B16 | 0.127
36 | B17 | 6.38
37 | B2 | 1.14
38 | B18 | 0.0334
39 | B3 | 0.415

Each binder was assayed against BK virus VP1 protein, genotype IV (BK virus) (assay: cell-based or functional assay).

Row | Binder | EC50, pseudovirus neutralization
40 | B1 | 0.0197 nM
41 | B4 | 0.0671 nM
42 | B5 | 0.0423 nM
43 | B6 | 0.11 nM
44 | B7 | 0.0251 nM
45 | B8 | 0.107 nM
46 | B9 | 0.0724 nM
47 | B10 | 0.0948 nM
48 | B11 | 0.143 nM
49 | B12 | 0.0416 nM
50 | B19 | 0.0728 nM and 0.0815 nM
51 | B13 | 0.0118 nM
52 | B14 | 0.0894 nM
53 | B15 | 0.0774 nM
54 | B16 | 2.21 nM
55 | B17 | > 6.67 nM
56 | B2 | > 6.67 nM
57 | B18 | 0.0943 nM
58 | B3 | 0.133 nM

Molecular target: BK virus VP1 protein, genotype II (BK virus)
Assay: cell-based or functional assay
Remark: another data set of the same source

Row | Binder | EC50, pseudovirus neutralization [nM] | EC50, pseudovirus neutralization (mAb mixed with irrelevant isotype matched mAb M2) [nM]
59 | B5 | 0.00058 | –
60 | B6 | – | 0.0023
61 | B16 | – | 0.0024

Molecular target: BK virus VP1 protein, genotype III (BK virus)
Assay: cell-based or functional assay
Remark: another data set of the same source

Row | Binder | EC50, pseudovirus neutralization [nM] | EC50, pseudovirus neutralization (mAb mixed with irrelevant isotype matched mAb M2) [nM]
62 | B5 | 0.00186 | –
63 | B6 | – | 1.29
64 | B16 | – | 0.172

Molecular target: BK virus VP1 protein, genotype IV (BK virus)
Assay: cell-based or functional assay
Remark: another data set of the same source

Row | Binder | EC50, pseudovirus neutralization [nM] | EC50, pseudovirus neutralization (mAb mixed with irrelevant isotype matched mAb M2) [nM]
65 | B5 | 0.0023 | –
66 | B6 | – | 0.196
67 | B16 | – | 0.944
